For one test, the target named is GST-HSF1N101 (human) (UniProt Q00613). In words: GST pull-down; 35S-labeled in vitro translated protein on GST-fusion glutathione-Sepharose, SDS-PAGE, autoradiography, BAS2000 quantification.
Another test has as its target GST-HSF2N96 (human) (UniProt Q03933). The description is as above.

Sequence of GST-HSF1N101 (human) (Q00613 101-529): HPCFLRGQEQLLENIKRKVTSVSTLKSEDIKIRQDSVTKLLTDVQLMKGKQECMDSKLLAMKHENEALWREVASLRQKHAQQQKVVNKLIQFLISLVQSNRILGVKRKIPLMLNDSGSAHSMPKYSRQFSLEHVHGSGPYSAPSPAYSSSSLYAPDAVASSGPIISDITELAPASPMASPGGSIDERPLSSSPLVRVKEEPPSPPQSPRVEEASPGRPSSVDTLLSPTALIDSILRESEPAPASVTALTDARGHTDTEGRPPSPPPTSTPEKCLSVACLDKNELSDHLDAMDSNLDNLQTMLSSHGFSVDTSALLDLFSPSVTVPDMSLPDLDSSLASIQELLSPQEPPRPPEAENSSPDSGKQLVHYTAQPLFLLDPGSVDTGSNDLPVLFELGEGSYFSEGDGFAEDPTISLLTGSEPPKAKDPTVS
Sequence of GST-HSF2N96 (human) (Q03933 96-536): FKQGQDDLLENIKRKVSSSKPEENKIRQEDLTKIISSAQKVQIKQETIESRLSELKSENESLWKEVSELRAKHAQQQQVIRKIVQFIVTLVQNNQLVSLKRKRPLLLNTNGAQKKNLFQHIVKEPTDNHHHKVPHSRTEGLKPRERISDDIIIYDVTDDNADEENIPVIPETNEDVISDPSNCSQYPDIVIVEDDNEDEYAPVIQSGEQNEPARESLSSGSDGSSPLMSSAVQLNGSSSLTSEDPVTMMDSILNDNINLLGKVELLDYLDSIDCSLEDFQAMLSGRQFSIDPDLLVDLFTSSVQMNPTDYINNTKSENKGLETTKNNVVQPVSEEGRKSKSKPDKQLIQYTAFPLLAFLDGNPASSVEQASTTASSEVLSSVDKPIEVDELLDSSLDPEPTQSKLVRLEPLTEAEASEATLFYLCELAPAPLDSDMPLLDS

B1: HSF2 binding protein (HSF2BP), in vitro translated, 35S-methionine-labeled (protein)
chain: MGEAGAAEEACRHMGTKEEFVKVRKKDLERLTTEVMQIRDFLPRILNGEVLESFQKLKIVEKNLERKEQELEQLKMDCEHFKARLETVQADNIREKKEKLALRQQLNEAKQQLLQQAEYCTEMGAAACTLLWGVSSSEEVVKAILGGDKALKFFSITGQTMESFVKSLDGDVQELDSDESQFVFALAGIVTNVAAIACGREFLVNSSRVLLDTILQLLGDLKPGQCTKLKVLMLMSLYNVSINLKGLKYISESPGFIPLLWWLLSDPDAEVCLHVLRLVQSVVLEPEVFSKSASEFRSSLPLQRILAMSKSRNPRLQTAAQELLEDLRTLEHNV
modifications: 35S-methionine label
For the molecule B1, the proportion of bound HSF2BP (% of the level of input) (% of the level of input) with GST-HSF1N101 (human) stood at 8.5; with GST-HSF2N96 (human), 7.9.

Values taken from patent US6485936.
